Assay [1] has as its target T1, humanized antibody Hz515H7 VH1 D76N VL2.
T1 construct: IgG1/kappa; also called hz515H7VL2; hz515H7-1
Briefly: SPR (Biacore X): m-FcγRIII injected over hz515H7VH1D76NVL2 Mab immobilized on a CM4 sensorchip; Langmuir model. The protocol: (§1) 1964 RU of hz515H7VH1D76NVL2 Mab were immobilized using the amine coupling kit chemistry on the second flowcell (FC2) of a CM4 sensorchip. The first flowcell (FC1) activated by NHS and EDC mixture and des-activated by ethanolamine served as the reference surface to check and subtract the non specific interaction between the analyte (Fc gamma receptors) and the sensorchip matrix.
(§2) The kinetic experiments were carried out at 25° Celsius at a flow rate of 30 μl/min. The HBS-EP buffer was used either as the running buffer or for the preparation of analyte solutions. The analyte solutions were injected during 90 seconds (association phase) with a 90 seconds delay (dissociation phase). An injection of running buffer as analyte was used as a double reference. All the sensorgrams were corrected by this double reference sensorgram.
Using the Langmuïr model the constant of dissociation was around 17 and 18 nM.
In general terms: SPR reads the build-up and loss of mass on a sensor chip optically.

Assay [2] deals with T2, chimeric antibody c515H7.
T2 construct: Human IgG1/kappa constant domains; also called c515H7 Mab; chimeric 515H7
Briefly: SPR (Biacore X): m-FcγRIII injected over c515H7 Mab immobilized on a CM4 sensorchip; heterogeneous ligand model, minor component (1%). As to the method:
(§3) 2017 RU of c515H7 Mab were immobilized using the amine coupling kit chemistry on the second flowcell (FC2) of a CM4 sensorchip. The first flowcell (FC1) activated by NHS and EDC mixture and des-activated by ethanolamine served as the reference surface to check and subtract the non specific interaction between the analyte (Fc gamma receptors) and the sensorchip matrix.
as §2
(§4) After each injection of the analyte, the sensorchip was regenerated by injection of 20 mM NaOH, 75 mM NaCl solution.

Assay [3] deals with T1, humanized antibody Hz515H7 VH1 D76N VL2. In words: SPR (Biacore X): m-FcγRIII injected over hz515H7VH1D76NVL2 Mab immobilized on a CM4 sensorchip; heterogeneous ligand model, minor component (34%).
For assay [4] the target is unchanged. In words: SPR (Biacore X): m-FcγRIII injected over hz515H7VH1D76NVL2 Mab immobilized on a CM4 sensorchip; heterogeneous ligand model, major component (66%).
The target in assay [5] is T2, chimeric antibody c515H7. Briefly: SPR (Biacore X): m-FcγRIII injected over c515H7 Mab immobilized on a CM4 sensorchip; Langmuir model. As to the method: as §3, §2, §4
The target in assay [6] is T2, chimeric antibody c515H7. In words: SPR (Biacore X): m-FcγRIII injected over c515H7 Mab immobilized on a CM4 sensorchip; heterogeneous ligand model, major component (99%). The protocol: as §3, §2, §4
Assay [7] has as its target T2, chimeric antibody c515H7. In words: SPR (Biacore X): h-FcγRI injected over c515H7 Mab immobilized on a CM4 sensorchip; Langmuir model. As to the method:
as §3, §2, §4

Assay [8] deals with T2, chimeric antibody c515H7. Briefly: SPR (Biacore X): h-FcγRI injected over c515H7 Mab immobilized on a CM4 sensorchip; heterogeneous ligand model, minor component (0%). As to the method:
as §3, §2, §4

For assay [9], the target named is T1, humanized antibody Hz515H7 VH1 D76N VL2. In words: SPR (Biacore X): h-FcγRI injected over hz515H7VH1D76NVL2 Mab immobilized on a CM4 sensorchip; heterogeneous ligand model, minor component (1%). As to the method:
(§5) The experiments were carried out using a Biacore X device. The soluble forms of the four Fc […]gamma receptors used in this study were purchased from R&D Systems: […]

Assay [10] has the same target. In words: SPR (Biacore X): h-FcγRI injected over hz515H7VH1D76NVL2 Mab immobilized on a CM4 sensorchip; heterogeneous ligand model, major component (99%). As to the method: as §5
For assay [11], the target named is T2, chimeric antibody c515H7. In words: SPR (Biacore X): h-FcγRI injected over c515H7 Mab immobilized on a CM4 sensorchip; heterogeneous ligand model, major component (100%). As to the method: as §3, §2, §4
The target in assay [12] is T1, humanized antibody Hz515H7 VH1 D76N VL2. In words: SPR (Biacore X): h-FcγRI injected over hz515H7VH1D76NVL2 Mab immobilized on a CM4 sensorchip; Langmuir model. As to the method: as §5
Assay [13] has as its target T2, chimeric antibody c515H7. Briefly: SPR (Biacore X): m-FcγRI injected over c515H7 Mab immobilized on a CM4 sensorchip; heterogeneous ligand model, minor component (19%). As to the method:
as §3, §2, §4

Assay [14] concerns the target T2, chimeric antibody c515H7. Briefly: SPR (Biacore X): m-FcγRI injected over c515H7 Mab immobilized on a CM4 sensorchip; Langmuir model. The protocol: as §3, §2, §4
Assay [15] has as its target T2, chimeric antibody c515H7. In words: SPR (Biacore X): m-FcγRI injected over c515H7 Mab immobilized on a CM4 sensorchip; heterogeneous ligand model, major component (81%). As to the method: as §3, §2, §4
In assay [16] the target is T1, humanized antibody Hz515H7 VH1 D76N VL2. In words: SPR (Biacore X): m-FcγRI injected over hz515H7VH1D76NVL2 Mab immobilized on a CM4 sensorchip; heterogeneous ligand model, minor component (18%). As to the method:
as §1, §2
(§6) After each injection of the analyte, the sensorchip was regenerated by injection of either 20 mM NaOH solution after h-FcγRI and m-FcγRIII or 10 mM NaOH after h-FcγRIIIA and m-FcγRI.

For assay [17] the target is unchanged. In words: SPR (Biacore X): m-FcγRI injected over hz515H7VH1D76NVL2 Mab immobilized on a CM4 sensorchip; heterogeneous ligand model, major component (82%). The protocol:
as §1, §2, §6

Assay [18] shares this target. In words: SPR (Biacore X): m-FcγRI injected over hz515H7VH1D76NVL2 Mab immobilized on a CM4 sensorchip; Langmuir model. The protocol:
as §1, §2, §6

T2 sequence (heavy, as listed by the source, chain 1 of 2): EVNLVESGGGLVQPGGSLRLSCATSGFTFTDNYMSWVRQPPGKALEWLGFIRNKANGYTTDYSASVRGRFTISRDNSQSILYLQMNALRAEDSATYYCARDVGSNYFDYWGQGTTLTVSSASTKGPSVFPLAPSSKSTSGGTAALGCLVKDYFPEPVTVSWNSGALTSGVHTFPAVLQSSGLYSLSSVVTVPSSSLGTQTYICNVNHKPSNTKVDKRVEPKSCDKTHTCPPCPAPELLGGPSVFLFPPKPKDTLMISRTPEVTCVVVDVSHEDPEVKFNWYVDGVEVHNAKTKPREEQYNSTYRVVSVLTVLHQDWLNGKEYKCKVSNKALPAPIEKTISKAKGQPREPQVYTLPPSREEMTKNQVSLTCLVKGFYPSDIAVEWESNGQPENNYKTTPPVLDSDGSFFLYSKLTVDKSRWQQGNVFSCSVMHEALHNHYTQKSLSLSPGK
T2 sequence (light, as listed by the source, chain 2 of 2): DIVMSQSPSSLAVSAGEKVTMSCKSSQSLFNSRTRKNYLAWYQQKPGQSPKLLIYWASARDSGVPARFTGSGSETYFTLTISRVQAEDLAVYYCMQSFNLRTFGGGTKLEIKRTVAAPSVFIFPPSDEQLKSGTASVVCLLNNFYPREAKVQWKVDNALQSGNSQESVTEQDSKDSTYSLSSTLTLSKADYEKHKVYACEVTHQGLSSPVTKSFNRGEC
T1 sequence (heavy, as listed by the source, chain 1 of 2): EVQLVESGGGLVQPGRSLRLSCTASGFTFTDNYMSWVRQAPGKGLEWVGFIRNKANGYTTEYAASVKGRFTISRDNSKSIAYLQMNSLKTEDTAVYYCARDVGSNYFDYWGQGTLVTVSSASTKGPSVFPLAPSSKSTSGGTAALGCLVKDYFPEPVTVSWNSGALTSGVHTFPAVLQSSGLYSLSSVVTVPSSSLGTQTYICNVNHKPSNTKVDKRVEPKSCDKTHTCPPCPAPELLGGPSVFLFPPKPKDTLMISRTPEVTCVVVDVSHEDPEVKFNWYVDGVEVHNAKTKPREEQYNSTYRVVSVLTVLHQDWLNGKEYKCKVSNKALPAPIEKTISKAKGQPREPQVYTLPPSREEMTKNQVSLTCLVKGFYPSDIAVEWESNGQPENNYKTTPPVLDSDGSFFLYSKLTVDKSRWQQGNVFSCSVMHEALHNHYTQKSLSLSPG
T1 sequence (light, as listed by the source, chain 2 of 2): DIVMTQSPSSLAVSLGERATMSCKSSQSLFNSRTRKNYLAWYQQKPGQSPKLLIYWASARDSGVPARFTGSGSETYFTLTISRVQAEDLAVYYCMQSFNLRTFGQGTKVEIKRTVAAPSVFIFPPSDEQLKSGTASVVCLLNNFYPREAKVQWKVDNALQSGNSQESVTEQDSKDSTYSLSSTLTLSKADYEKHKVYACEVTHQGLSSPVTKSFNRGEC

B1: Recombinant mouse FcγRIII [CD16], Ala31-Thr215 with C-terminal 10-His tag (receptor)
chain: ALPKAVVKLDPPWIQVLKEDMVTLMCEGTHNPGNSSTQWFHNGRSIRSQVQASYTFKATVNDSGEYRCQMEQTRLSDPVDLGVISDWLLLQTPQRVFLEGETITLRCHSWRNKLLNRISFFHNEKSVRYHHYKSNFSIPKANHSHSGDYYCKGSLGSTQHQSKPVTITVQDPATTSSISLVWYHTHHHHHHHHHH
notes: Soluble form bought from R&D Systems; also called m-FcγRIII
With B1, the t1/2 in [1] turned out to be 3.17 min; in the assay with chimeric antibody c515H7 [2], 4.85 min; in assay [3], 0.39 min; in assay [4], 313 min; in the assay with chimeric antibody c515H7 [5], 2.61 min; in the assay with chimeric antibody c515H7 [6] it was 2.59 min.

B2: Recombinant human FcγRI [CD64], Gln16-Pro288 with C-terminal 6-His tag (receptor)
chain: QVDTTKAVITLQPPWVSVFQEETVTLHCEVLHLPGSSSTQWFLNGTATQTSTPSYRITSASVNDSGEYRCQRGLSGRSDPIQLEIHRGWLLLQVSSRVFTEGEPLALRCHAWKDKLVYNVLYYRNGKAFKFFHWNSNLTILKTNISHNGTYHCSGMGKHRYTSAGISVTVKELFPAPVLNASVTSPLLEGNLVTLSCETKLLLQRPGLQLYFSFYMGSKTLRGRNTSSEYQILTARREDSGLYWCEAATEDGNVLKRSPELELQVLGLQLPTPHHHHHH
notes: range 16-288; Soluble form bought from R&D Systems; also called h-FcγRI
Consider B2, for which the t1/2 with chimeric antibody c515H7 [7] was 19.3 min; in the assay with chimeric antibody c515H7 [8], 158 min; in [9], 578 min; in [10] it was 28.9 min; with chimeric antibody c515H7 [11], 19.3 min; in assay [12], 21.4 min.

B3: Recombinant mouse FcγRI [CD64], Gln25-Pro297 with C-terminal 6-His tag (receptor)
chain: EVVNATKAVITLQPPWVSIFQKENVTLWCEGPHLPGDSSTQWFINGTAVQISTPSYSIPEASFQDSGEYRCQIGSSMPSDPVQLQIHNDWLLLQASRRVLTEGEPLALRCHGWKNKLVYNVVFYRNGKSFQFSSDSEVAILKTNLSHSGIYHCSGTGRHRYTSAGVSITVKELFTTPVLRASVSSPFPEGSLVTLNCETNLLLQRPGLQLHFSFYVGSKILEYRNTSSEYHIARAEREDAGFYWCEVATEDSSVLKRSPELELQVLGPQSSAPHHHHHH
notes: range 25-297; Soluble form bought from R&D Systems; also called m-FcγRI
As to B3, the t1/2 is 0.3 min with chimeric antibody c515H7 [13]; 0.17 min in the assay with chimeric antibody c515H7 [14]; 0.08 min with chimeric antibody c515H7 [15]; 0.53 min in assay [16]; 0.11 min in assay [17]; 0.18 min in assay [18].
